Measured values published in paper PMC12420816 (Nature Communications, 2025).

Target: SARS-CoV-2 nsp16 with uncleaved His6-tag (SARS-CoV-2) (UniProt P0DTD1)
Assay: native MS

Work on “SARS-CoV-2 nsp7-11 polyprotein, tag-free with native (authentic) termini (domain or fragment)” yielded a percent of signal as complex of 2%.
